This data set addresses T1, Pfu DNA polymerase (Pyrococcus furiosus, UniProt P61875 SEQ:1-775).
T1 sequence: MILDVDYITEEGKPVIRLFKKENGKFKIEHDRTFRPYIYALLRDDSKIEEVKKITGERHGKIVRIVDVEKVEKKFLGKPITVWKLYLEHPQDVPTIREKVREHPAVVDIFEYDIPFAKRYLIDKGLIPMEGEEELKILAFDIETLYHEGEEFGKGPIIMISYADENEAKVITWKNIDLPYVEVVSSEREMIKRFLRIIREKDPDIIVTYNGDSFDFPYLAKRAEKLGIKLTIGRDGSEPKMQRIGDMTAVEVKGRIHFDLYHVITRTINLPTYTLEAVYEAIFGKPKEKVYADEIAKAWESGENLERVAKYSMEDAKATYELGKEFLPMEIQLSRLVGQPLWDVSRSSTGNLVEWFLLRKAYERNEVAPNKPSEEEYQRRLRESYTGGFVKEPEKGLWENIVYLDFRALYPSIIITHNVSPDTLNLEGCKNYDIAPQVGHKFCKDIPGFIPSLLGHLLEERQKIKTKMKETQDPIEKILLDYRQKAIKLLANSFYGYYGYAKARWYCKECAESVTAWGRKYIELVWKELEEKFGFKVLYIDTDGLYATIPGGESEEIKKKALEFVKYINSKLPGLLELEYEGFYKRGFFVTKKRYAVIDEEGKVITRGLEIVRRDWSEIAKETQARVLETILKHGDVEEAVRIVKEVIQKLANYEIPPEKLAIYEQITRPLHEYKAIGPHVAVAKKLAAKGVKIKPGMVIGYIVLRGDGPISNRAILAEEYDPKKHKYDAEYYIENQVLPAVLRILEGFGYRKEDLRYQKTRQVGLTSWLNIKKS
In words: 3'-5' exonuclease fluorescence assay, 65 C; high exonuclease activity. The conditions noted are these: tags: Stratagene (commercial); label: 5'-FAM, 3'-dabcyl; hairpin, 16 bp stem with 3' T:T* mismatch and 5' unpaired poly-T. Here is the method: The oligonucleotide was combined with buffer and the enzyme and incubated in a real time detection instrument, the DNA Engine Opticon System (MJ Research, Inc.). This instrument excites the FAM and detects any fluorescence if present. In the absence of 3′ to 5′ exonuclease activity, there is only background fluorescence because FAM is quenched by DAB. However if the enzyme does have 3′ to 5′ exonuclease activity, the T:T* mismatch is recognized and the 3′-T* is removed. The DAB is released and will no longer quench the FAM fluorescence. The Opticon System will detect the increase in fluorescence with increasing time (readings were taken every 10 sec at 65° C.). The rate of fluorescence increase directly reflects the amount of 3′ to 5′ exonuclease activity. […] The results (FIG. 3) of this analysis are discussed below.

Turning to TTTTTTGAGGTGTGTCCTACACAGCGGAGTGTAGGACACACCTCT (structured_DNA, 3' terminal T is amino-link dT carrying dabcyl) [FAM/dabcyl hairpin exonuclease substrate], the binding result was “binds”.

For the origin of these results see patent US20040219558, “Novel compositions with polymerase activity” (MJ Bioworks Incorporated, published 2004).
